Patent publication US20250009780A1, “AGENTS ENCODING CLDN6 AND CD3 BINDING ELEMENTS FOR TREATING CLDN6-POSITIVE CANCERS” (BIONTECH SE, priority 2021, published 2025)

Assays:
human PBMCs = assay: In vitro human cytokine release (multiplex ELISA on T-cell activation assay supernatants); assay type: cell-based
Description: Cytokine concentration values for each donor (means of technical triplicates) are shown. Filled symbols represent values with target cells while open symbols represent values without target cells.
Cell culture supernatants obtained from the T-cell activation assay were analyzed to investigate the RiboMab02.1-dependent induction of on- and off-target cytokine release. The levels of human pro-inflammatory cytokines IFN-γ, IL-1β, IL-2, IL-6, IL-10 and TNF-α were measured using a customized multiplex ELISA kit.

[1] = Anti-drug antibody (ADA) sandwich immunoassay in mouse serum; assay type: in vivo, Balb/cJRj mice; conditions: 30 μg RNA-LNP IV single dose; compared to RiboMab_712/711
Description: Four female Balb/cJRj mice received an IV single dose of 30 μg RNA-LNP per mouse (˜1.4 mg/kg). Serum was sampled pre- and 6, 24, 48, 96, 168, 216, 265 and 528 hours (0.25 to 22 days) post-administration.
Anti-RiboMab02.1 and anti-RiboMab_712/711 drug antibodies (ADAs) in mouse sera were determined using a Gyros xPand™ XPA1025 ELISA device from Gyros Protein Technologies AB. Sandwich immunoassay was processed on a Gyrolab Bioaffy 200 CD.
Anti-RiboMab ADAs were captured using 100 μg/mL biotinylated drug antibody. Serum ADA levels were detected with 25 nM Alexa Fluor 647-conjugated AffiniPure goat anti-mouse IgG, Fc fragment specific antibody. Data were generated using the 200-3W-002-A method and the results were analyzed using Gyrolab Evaluator software.
The positive ADA response was determined according to the floating cut-point. Therefore, the cut-point was calculated using the response of the negative sera (pre-bleeds) and the formula, normalization factor (NF)+mean negative controls (NC).
NF=X*SD of the negative samples; X=1.645; SD=standard deviation of the negative sera (pre-bleeds); NC=3 negative controls (pooled negative sera).

CLDN6 = target: T1, CLDN6 (Homo sapiens, UniProt P56747); assay: Flow cytometric binding assay, HEK-293T-17 CLDN6 transductants; conditions: 10 μg/mL RiboMab02.1 in HEK-293T-17 supernatant
T1 construct: expressed in transfected cells
T1 sequence (P56747 1-220): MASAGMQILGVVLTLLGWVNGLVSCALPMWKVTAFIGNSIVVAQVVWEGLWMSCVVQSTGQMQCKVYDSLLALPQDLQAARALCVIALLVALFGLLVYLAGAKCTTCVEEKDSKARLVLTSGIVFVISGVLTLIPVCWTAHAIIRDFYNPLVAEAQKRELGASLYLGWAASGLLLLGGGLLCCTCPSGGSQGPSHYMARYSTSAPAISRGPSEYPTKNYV
Excerpt: (§1) Cells were first gated for singlets followed by gating for viable lymphocytes (PBMCs) or viable HEK-293T-17 cells. […] Cynomolgus monkey or human PBMCs and HEK-293T-17 transductants stably expressing luciferase (HEK-293T-17_mock), CLDN3, 4, 6 or 9 served as target cells as indicated. The dotted vertical line marks the peak position of unstained populations.

[2] = Repeated-dose PK study of BNT142 in mice; assay type: in vivo, Balb/cJRj mice
Description: Female Balb/cJRj mice (n=4) were injected IV with 10 or 30 μg BNT142 or 30 μg Luc_RNA-LNP as control once weekly for a total of five administrations at the time points indicated by the horizontal dotted lines. Blood was drawn from mice at baseline (0 h), 6 h after (6, 174, 342, 510, and 678 h) and 24 h before (144, 312, 480, and 648 h) each BNT142 or saline administration, respectively. A final blood draw was done 816 h after the first BNT142/saline administration.
Treatment groups received five IV bolus injections of 10 or 30 μg BNT142 (approximately 0.4 and 1.2 mg/kg, respectively) or 30 μg Luc_RNA-LNP at a weekly interval. Serum samples were prepared from blood drawn from the animals at 6 h after (tmax) and 24 h prior to (last detectable concentration [Ctrough]) each BNT142 administration. […] The last blood samples were drawn 816 h (34 days) after the first injection.

human PBMCs (T cells) = assay: T-cell proliferation assay (CFSE-labeled PBMCs, flow cytometry); assay type: cell-based
Excerpt: CFSE-labeled human PBMCs from three healthy donors were co-cultured with CLDN6-positive PA-1 and OV-90 target cells or with CLDN6-negative but control TAA-positive NUGC-4 as well as target-negative MDA-MB-231 control cells in a 12-well culture plate format. An effector-to-target-cell ratio of 10:1 was applied. In addition, PBMCs without (−) target cells were included separately. […] OKT3 antibody (anti-human CD3; black bars) served as positive control for target-independent CD3-driven T-cell proliferation. After 72 h of incubation, the percentages of proliferating T cells were analyzed by flow cytometry.
HEK-293T-17 producer cells were transfected with BNT142 or a control RiboMab-encoding RNA. Supernatants containing RiboMab02.1 or the control RiboMab (specific for an irrelevant TAA) were used as test items. Two concentrations (100 or 1 ng/mL) of RiboMab-containing supernatant were added to co-cultures of carboxyfluorescein succinimidyl ester (CFSE)-labeled human PBMCs and target-positive or -negative cells. PA-1 or OV-90 served as CLDN6-positive and MDA-MB-231 as target-negative cells. CLDN6-negative NUGC-4 cells (expressing the irrelevant TAA) as well as PBMCs in the absence of any target cells were included as further specificity controls. PBMCs from three healthy donors were compared in this assay. After 72 h of incubation, T cells were analyzed by flow cytometry to determine target-dependent proliferation.

CLDN3 = target: T2, CLDN3 (Homo sapiens, UniProt O15551); assay: Flow cytometric binding assay, HEK-293T-17 CLDN3 transductants; conditions: 10 μg/mL RiboMab02.1 in HEK-293T-17 supernatant
T2 construct: expressed in transfected cells
T2 sequence (O15551 1-220): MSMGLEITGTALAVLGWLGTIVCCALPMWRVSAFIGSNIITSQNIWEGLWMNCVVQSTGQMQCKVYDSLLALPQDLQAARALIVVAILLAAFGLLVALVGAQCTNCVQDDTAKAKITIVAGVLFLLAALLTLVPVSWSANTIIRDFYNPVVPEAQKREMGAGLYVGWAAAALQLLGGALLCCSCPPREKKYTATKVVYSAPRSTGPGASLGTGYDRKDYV
Excerpt: as §1

RiboMab02.1: Fab-(scFv)2-based bispecific antibody (tribody) against CLDN6 and CD3 encoded by BNT142; SEQ ID NOs: 4 and 6; C53S
cytokine induction (human PBMCs; absence of CLDN6-positive PA-1 target cells): no cytokine induction was observed
IL-6 induction (human PBMCs; absence of target cells, highest concentration of RiboMab02.1): low induction of IL-6 seen with one donor
release of IFN-γ, IL-1β, IL-2, IL-6, IL-10 and TNF-α (human PBMCs; presence of PA-1 target cells, dose- and donor-dependent): induced the release of all cytokines
immunogenic potential (ADA response) [1]: lower immunogenic potential
binding to CLDN6 (CLDN6): bound specifically
RiboMab02.1 peak level (Cmax) in serum ([2]; 10 μg BNT142 weekly x5, 6 h after last injection): up to 7.4 μg/mL
RiboMab02.1 translation between subsequent injections ([2]; either BNT142 dose): no loss in RiboMab02.1 translation
Ctrough lower than Cmax ([2]; within 7 days of each injection): approximately 130 fold
T-cell proliferation (human PBMCs (T cells); PBMCs co-cultured with CLDN6-negative NUGC-4 cells): no RiboMab02.1-driven T-cell proliferation
T-cell proliferation (human PBMCs (T cells); PBMCs co-cultured with MDA-MB-231 cells): no RiboMab02.1-driven T-cell proliferation
T-cell proliferation (human PBMCs (T cells); absence of any target cells): no RiboMab02.1-driven T-cell proliferation
T-cell proliferation (human PBMCs (T cells); with OV-90 cells, 1 ng/mL, 72 h): 2±3%
T-cell proliferation (human PBMCs (T cells); with OV-90 cells, 100 ng/mL, 72 h): 24±3%
T-cell proliferation (human PBMCs (T cells); with PA-1 cells, 1 ng/mL, 72 h): ~44±7%
T-cell proliferation (human PBMCs (T cells); with PA-1 cells, 100 ng/mL, 72 h, E:T 10:1, three donors): approximately 58±2%
binding to CLDN3 (CLDN3): not to CLDN3, CLDN4 or CLDN9
